These results are taken from article PMC8754640.

Data set [1] has as its target His-PABP 4EA-Flag (Flag-PABP 4EA) (UniProt P11940 2-636, E178A;E180A;E182A;E189A). Nature of the data set: EMSA. (In EMSA bound probe runs differently from free probe, usually more slowly.)
Data set [2] has as its target His-PABP WT-Flag (Flag-PABP) (UniProt P11940 2-636). Nature of the data set: EMSA.

Sequence of His-PABP WT-Flag (Flag-PABP) (P11940 2-636): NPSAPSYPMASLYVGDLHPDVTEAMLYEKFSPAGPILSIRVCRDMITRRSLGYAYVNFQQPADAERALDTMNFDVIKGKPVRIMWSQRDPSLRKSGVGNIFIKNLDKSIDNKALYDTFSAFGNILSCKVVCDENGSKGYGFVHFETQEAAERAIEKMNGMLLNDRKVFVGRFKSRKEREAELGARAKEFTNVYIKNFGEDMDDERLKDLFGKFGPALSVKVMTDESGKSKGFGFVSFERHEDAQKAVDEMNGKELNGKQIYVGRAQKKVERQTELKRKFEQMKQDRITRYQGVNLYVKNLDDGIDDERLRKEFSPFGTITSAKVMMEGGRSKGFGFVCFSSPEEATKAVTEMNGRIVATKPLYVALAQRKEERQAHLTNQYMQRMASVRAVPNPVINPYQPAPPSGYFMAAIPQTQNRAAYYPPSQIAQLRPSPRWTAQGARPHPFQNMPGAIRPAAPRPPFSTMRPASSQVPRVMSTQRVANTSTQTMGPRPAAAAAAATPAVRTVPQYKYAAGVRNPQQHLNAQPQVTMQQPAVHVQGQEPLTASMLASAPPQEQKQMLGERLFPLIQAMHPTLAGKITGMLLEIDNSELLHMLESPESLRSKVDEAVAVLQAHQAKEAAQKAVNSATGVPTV
Sequence of His-PABP 4EA-Flag (Flag-PABP 4EA) (P11940 2-636 E178A/E180A/E182A/E189A): as the sequence (P11940 2-636) above, with E177A, E179A, E181A, E188A counted along it

B1: poly(A)25 (ssRNA)
RNA: AAAAAAAAAAAAAAAAAAAAAAAAA
As for B1, the values for the dissociation constant (Kd) in data set [1] and in data set [2] were around 2.2 nM and around 0.5 nM, respectively.

What is called Kd is the free concentration of one partner at which half of the binding sites on the other are occupied at equilibrium, for simple one-to-one binding. High values mean a looser complex, low ones a tighter complex.
